Target: GST-EVH1 domain of VASP (UniProt P70460 1-113)
Experiment: pull-down

Sequence of GST-EVH1 domain of VASP (P70460 1-113): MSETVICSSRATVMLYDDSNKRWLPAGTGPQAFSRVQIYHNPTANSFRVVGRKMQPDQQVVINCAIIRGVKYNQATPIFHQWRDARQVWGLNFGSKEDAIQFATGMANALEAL

B1: endogenous TRIM9 (natural protein, mouse (endogenous in E15.5 cortex), UniProt Q8C7M3 1-817, looked up)
chain: MEEMEEELKCPVCGSFYREPIILPCSHNLCQACARNILVQTPESESPQSRRASGSGVSDYDYLDLDKMSLYSEADSGYGSYGGFASAPTTPCQKSPNGVRVFPPAMPPPPTHLSPALAPVPRNSCITCPQCHRSLILDDRGLRGFPKNRVLEGVIDRYQQSKAAALKCQLCEKAPKEATVMCEQCDVFYCDPCRLRCHPPRGPLAKHRLVPPAQGRVSRRLSPRKVSTCTDHELENHSMYCVQCKMPVCYQCLEEGKHSSHEVKALGAMWKLHKSQLSQALNGLSDRAKEAKEFLVQLRTMVQQIQENSVEFEACLVAQCDALIDALNRRKAQLLARVNKEHEHKLKVVRDQISHCTVKLRQTTGLMEYCLEVIKENDPSGFLQISDALIRRVHLTEDQWGKGTLTPRMTTDFDLSLDNSPLLQSIHQLDFVQVKASSPVPATPILQLEECCTHNNSATLSWKQPPLSTVAADGYILELDDGSGGQFREVYVGKETMCTVDGLHFNSTYNARVKAFNKTGVSPYSKTLVLQTSEAAGAHETKPMKDTDSEEQTLPFPVPSERLPLRRMSPFSSTLNLQPSFPGRSYFDFRSSPHQLSLHSSLQSLNAPGCNFETQSASYSQLVDIKKLLAVAWFAFDPGSAHSDIIFSNDNLTVTCSSYDDRVVLGKTGFSKGVHYWELTIDRYDNHPDPAFGVARIDVMKDMMLGKDDKAWAMYVDNNRSWFMHNNSHTNRTEGGITKGATIGVLLDLNRKTLTFFVNNEQQGPIAFENVEGLFFPAVSLNRNVQVSLWAPGLRACSGCYFKVCPGAVKSPQAPAP
fold change of TRIM9 precipitated, Trim67-/- lysate against wild-type lysate: ~2 fold

— article doi:10.1101/529222 (bioRxiv, 2019)
